Results taken from article PMC10716038, “Talin and kindlin use integrin tail allostery and direct binding to activate integrins” (Nature Structural & Molecular Biology, 2023).
Positions count from the first letter of the chain named. Names and notes keep the numbering of the source. No end group written: not given here.

T1: β3 transmembrane and cytoplasmic tail polypeptide (β3-TM–CT) in nanodiscs (UniProt O54890 715-787, biotin (biotin-maleimide))
T1 chain: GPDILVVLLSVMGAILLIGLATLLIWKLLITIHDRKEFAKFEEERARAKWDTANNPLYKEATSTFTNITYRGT

T2: β1 transmembrane and cytoplasmic tail polypeptide (β1-TM–CT) in nanodiscs (UniProt P05556 726-798, biotin (biotin-maleimide))
T2 chain: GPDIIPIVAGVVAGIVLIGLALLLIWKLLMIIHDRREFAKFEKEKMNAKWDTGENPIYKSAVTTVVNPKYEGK

T3: α5-TM lacking the cytoplasmic domain (tailless α5-TM) in nanodiscs (UniProt P11688 993-1025, biotin (biotin-maleimide))
T3 chain: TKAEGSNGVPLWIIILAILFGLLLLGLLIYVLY

T4: kindlin-2 (KIND2) (UniProt Q8CIB5 1-680)
T4 chain: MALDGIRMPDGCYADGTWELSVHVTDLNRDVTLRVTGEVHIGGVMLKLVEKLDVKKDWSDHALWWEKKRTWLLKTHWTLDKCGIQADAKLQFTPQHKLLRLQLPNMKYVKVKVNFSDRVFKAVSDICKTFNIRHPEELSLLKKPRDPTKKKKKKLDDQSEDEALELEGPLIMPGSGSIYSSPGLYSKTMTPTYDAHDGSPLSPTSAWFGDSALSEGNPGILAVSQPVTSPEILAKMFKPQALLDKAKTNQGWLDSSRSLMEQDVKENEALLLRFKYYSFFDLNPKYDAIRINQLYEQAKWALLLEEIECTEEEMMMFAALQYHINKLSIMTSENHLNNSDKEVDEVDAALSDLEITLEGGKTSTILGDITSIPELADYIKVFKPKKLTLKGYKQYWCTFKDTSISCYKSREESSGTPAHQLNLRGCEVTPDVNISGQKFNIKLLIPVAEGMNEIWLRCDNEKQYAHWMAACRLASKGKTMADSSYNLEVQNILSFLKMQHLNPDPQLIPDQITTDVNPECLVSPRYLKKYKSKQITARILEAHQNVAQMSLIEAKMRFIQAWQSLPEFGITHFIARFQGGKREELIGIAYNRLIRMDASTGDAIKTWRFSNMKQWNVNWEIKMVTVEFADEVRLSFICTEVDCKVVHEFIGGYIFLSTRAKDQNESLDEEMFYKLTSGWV

B1: KIND2^Y13A (natural protein)
chain: T4 chain with Y13A
B2: talin-1 head domain (THD1) (domain or fragment)
chain: MVALSLKISIGNVVKTMQFEPSTMVYDACRMIRERIPEALAGPPNDFGLFLSDDDPKKGIWLEAGKALDYYMLRNGDTMEYRKKQRPLKIRMLDGTVKTIMVDDSKTVTDMLMTICARIGITNHDEYSLVRELMEEKKDEGTGTLRKDKTLLRDEKKMEKLKQKLHTDDELNWLDHGRTLREQGVEEHETLLLRRKFFYSDQNVDSRDPVQLNLLYVQARDDILNGSHPVSFDKACEFAGFQCQIQFGPHNEQKHKAGFLDLKDFLPKEYVKQKGERKIFQAHKNCGQMSEIEAKVRYVKLARSLKTYGVSFFLVKEKMKGKNKLVPRLLGITKECVMRVDEKTKEVIQEWSLTNIKRWAASPKSFTLDFGDYQDGYYSVQTTEGEQIAQLIAGYIDIILKKKKS
B3: THD1^K402E (domain or fragment)
chain: B2 chain with K402E

Legend:
[1] = biological target: ATTO 488-labelled β1-CT^Y783A (UniProt P05556); assay: MST; ATTO 488-labelled β-CT peptide (50–200 nM) held constant, one unlabelled protein titrated; 20 mM Tris pH 7.5, 200 mM NaCl, 1 mM TCEP, 0.05% Tween-20; apparent affinities (near-saturation only)
ATTO 488-labelled β1-CT^Y783A, sequence (P05556 752-798 Y783A): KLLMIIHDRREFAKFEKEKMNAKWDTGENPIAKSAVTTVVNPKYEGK

[2] = biological target: ATTO 488-labelled β1-CT (488–β1-CT) (UniProt P05556); assay: as above
[3] = biological target: ATTO 488-labelled β1-CT^Y795A (UniProt P05556); assay: as above
ATTO 488-labelled β1-CT^Y795A, sequence (P05556 752-798 Y795A): as the sequence (P05556 752-798 Y783A) above, with A32Y, Y44A counted along it

[4] = biological target: T1, β3 transmembrane and cytoplasmic tail …; assay: FACS; 10% PIP2 nanodiscs
[5] = biological target: T2, β1 transmembrane and cytoplasmic tail …; assay: FACS; 10% PIP2 nanodiscs
[6] = biological target: T3, α5-TM lacking the cytoplasmic domain …; assay: FACS; 10% PIP2 nanodiscs
[7] = biological target: T1, β3 transmembrane and cytoplasmic tail …; assay: FACS; 10% PIP3 nanodiscs
[8] = biological target: T3, α5-TM lacking the cytoplasmic domain …; assay: FACS; 10% PIP3 nanodiscs
[9] = biological target: T4, kindlin-2 (KIND2); assay: MST
[10] = biological target: B2; assay: MST
[11] = biological target: T5, β1-TM–CT Y783A (THD1-binding impaired) in nanodiscs (UniProt P09055 726-798, Y783A, biotin (biotin-maleimide)); assay: FACS; 10% PIP2 nanodiscs
[12] = biological target: β1-TM–CT Y795A (KIND2-binding impaired) in nanodiscs (UniProt P09055 726-798, Y795A, biotin (biotin-maleimide)); assay: FACS; 10% PIP2 nanodiscs
[13] = biological target: T5, β1-TM–CT Y783A (THD1-binding impaired) …; assay: FACS; 10% PIP3 nanodiscs
[14] = biological target: T2, β1 transmembrane and cytoplasmic tail …; assay: FACS; 10% PIP3 nanodiscs

Row | Molecule | IC50 [4] [nM] | IC50 [5] [nM] | IC50 [6] [nM] | IC50 [7] [nM] | IC50 [8] [nM] | IC50 [14] [nM] | other results
1 | TLN1-F3–ΔKIND2 fusion protein | – | – | – | – | – | – | Kd [1]: 4800 nM; Kd of the kindlin contribution (fit of concentrations up to 5 µM) [2]: 2900 nM; Kd of the talin contribution (fit of concentrations above 5 µM) [2]: 25000 nM; Kd [3]: 470000 nM
2 | B1 | 219 | 98 | 162 | 173 | 128 | – | –
3 | {ATTO 488}-KLLITIHDRKEFAKFEEERARAKWDTANNPLAKEATSTFTNITYRGT [ATTO 488-labelled β3-CT^Y772A] | – | – | – | – | – | – | Kd [9]: 15500 nM; Kd [10]: 511000 nM
4 | B2 | 66 | 73 | 274 | 83 | 411 | 92 | IC50 [11]: 307 nM; IC50 [12]: 98 nM; IC50 [13]: 427 nM
5 | B3 | 70 | 131 | 246 | 51 | 211 | 54 | –
